{"source": "patent US20260306676A1", "about": "“FLUORESCEIN-LABELED NERVE TARGETING PEPTIDE FORMULATIONS AND RELATED METHODS” (ALUME BIOSCIENCES, INC., priority 2023, published 2026)", "key": {"[1]": {"test": "Influence of storage temperature on stability of ALM-488 solution (HPLC)", "type": "physicochemical", "settings": "50 mg/mL in sterile water", "method": "To evaluate whether the ALM-488, HCl salt can be supplied in the form of a concentrated frozen solution, 50 mg/mL solutions of the HCl salt were prepared in water and evaluated for storage stability at different temperatures. The solutions having pH of 1.87 were prepared in sterile water for injection, and these solutions were stored at different storage temperatures (−20° C., 5° C. and 40° C.) and were analyzed using the HPLC method of Table 3 at different time periods."}, "[2]": {"test": "Influence of pH on solubility and stability of ALM-488", "type": "physicochemical", "method": "To understand pH-stability relationships, solutions of the ALM-488, HCl salt were prepared at ~1 mg/mL in 50 mM sodium citrate (pH 4-6) or sodium phosphate buffer (pH 7-8) solutions. […] All mixtures were filtered through a 0.45 μm PVDF syringe filter to remove undissolved solid, prior to storage. The filtered solution pH values were measured, and the samples were analyzed by HPLC using the HPLC method conditions of Table 3. Table lists the measured concentrations of ALM-488 (after filtration) as well as the measured solution pH values.\nThe solutions were then transferred into HPLC sample vials and were stored at 5° C., room temperature (22-23° C.) and 40° C.\nTable 5 below summarizes the measured concentrations of intact ALM-488 peptide quantified relative to a standard solution, as well as the area % of the main peptide peaks as measured using the HPLC analysis method of Table 3. FIG. 9 is an overlay of representative chromatograms of the ALM-488 solutions at different solution pH values stored at 40° C. for 24 h. […] At higher pH values, the impurity at RRT ~0.96 appeared to grow during storage."}, "[3]": {"test": "Effect of organic amine compounds on solubility of ALM-488 (pH titration)", "experimental": "To assess formulations that could be used to prepare ~50 mg/vial samples of ALM-488, and samples having an ALM-488 concentration of ~50 mg/mL, formulations having different organic amine compounds were studied. Each of these samples included (i) ALM-488 hydrochloride, (ii) a suitable base appropriate for a freeze-dried formulation (to adjust solution pH to optimal 7-8, as described in Examples 4 and 5), and (iii) at least one organic amine compound functioning as a pH-adjusting agent, bulking agent and/or a tonicity-adjusting agent. […] 55-60 mg/mL solutions of ALM-488 (pH 1.8-1.9) were titrated by gradual addition of 750 mM arginine, 1 M Tris, or 1 M meglumine."}, "[4]": {"test": "Drug product assay of lyophiles by HPLC", "type": "physicochemical", "settings": "Pre-Lyo., starting peptide", "method": "The content and purity of the ALM-488 peptide in the lyophilized product vials for Samples 10-1, 10-2 and 10-3 were evaluated using the HPLC method conditions of Table 3. […] The resulting solution was then transferred to a 200 mL volumetric flask. Each vial was rinsed well with water, and the rinses were transferred to the flask prior to volume make-up to 200 mL with water. The resulting solutions (~0.25 mg/mL of ALM488) were individually injected into the HPLC system and were analyzed as described above. The lyophilization process appeared to cause a small increase in the levels of some impurities."}, "[5]": {"settings": "After 24 hours at 40° C., Citrate buffer 50 mM, pH 3.95"}, "[6]": {"settings": "After 24 hours at 40° C., Citrate buffer 50 mM, pH 4.97"}, "[7]": {"settings": "After 24 hours at 40° C., Citrate buffer 50 mM, pH 6.01"}, "[8]": {"settings": "After 24 hours at 40° C., Phos. buffer 50 mM, pH 7.04"}, "[9]": {"settings": "After 24 hours at 40° C., Phos. buffer 50 mM, pH 8.18"}, "[10]": {"settings": "After 24 hours at 40° C., Water"}, "[11]": {"settings": "Initial, Citrate buffer 50 mM, pH 3.95"}, "[12]": {"settings": "Initial, Citrate buffer 50 mM, pH 4.97"}, "[13]": {"settings": "Initial, Phos. buffer 50 mM, pH 7.04"}, "[14]": {"settings": "Initial, Phos. buffer 50 mM, pH 8.18"}}, "data": [{"smiles": "CC(C)[C@H](NC(=O)[C@H](Cc1ccc(O)cc1)NCCCCC(=O)[C@H](Cc1ccc(O)cc1)NC(=O)[C@@H]1CCCN1C(=O)[C@H](CCC(=O)O)NC(=O)[C@H](CCC(=O)O)NC(=O)[C@H](Cc1c[nH]c2ccccc12)NC(=O)[C@@H]1CCCN1C(=O)[C@@H](NC(=O)[C@H](CCC(N)=O)NC(=O)c1ccc2c(c1)C(=O)OC21c2ccc(O)cc2Oc2cc(O)ccc21)C(C)C)C(=O)N[C@H](C(=O)N[C@@H](CCCCN)C(=O)N[C@@H](CCCCN)C(=O)N[C@@H](CO)C(=O)N[C@@H](CO)C(=O)NCC(=O)NCC(N)=O)C(C)C", "note": "[ALM-488, Bevonescein]", "values": [{"measurement": "ALM-488 main peak", "setting": "[1]; 7 Days (5° C.)", "value": 99.61, "unit": "AREA %"}, {"measurement": "impurity RRT~0.73", "setting": "[1]; 7 Days (5° C.)", "value": 0.07, "unit": "AREA %"}, {"measurement": "impurity RRT~0.97", "setting": "[1]; 7 Days (5° C.)", "value": 0.15, "unit": "AREA %"}, {"measurement": "impurity RRT~1.06", "setting": "[1]; 7 Days (5° C.)", "value": 0.14, "unit": "AREA %"}, {"measurement": "impurity RRT~1.38", "setting": "[1]; 7 Days (5° C.)", "value": 0.05, "unit": "AREA %"}, {"measurement": "ALM-488 main peak", "setting": "[1]; 7 Days (40° C.)", "value": 97.96, "unit": "AREA %"}, {"measurement": "impurity RRT~0.73", "setting": "[1]; 7 Days (40° C.)", "value": 0.05, "unit": "AREA %"}, {"measurement": "impurity RRT~0.93", "setting": "[1]; 7 Days (40° C.)", "value": 0.09, "unit": "AREA %"}, {"measurement": "impurity RRT~0.97", "setting": "[1]; 7 Days (40° C.)", "value": 0.07, "unit": "AREA %"}, {"measurement": "impurity RRT~1.06", "setting": "[1]; 7 Days (40° C.)", "value": 1.43, "unit": "AREA %"}, {"measurement": "impurity RRT~1.18", "setting": "[1]; 7 Days (40° C.)", "value": 0.07, "unit": "AREA %"}, {"measurement": "impurity RRT~1.38", "setting": "[1]; 7 Days (40° C.)", "value": 0.27, "unit": "AREA %"}, {"measurement": "ALM-488 main peak", "setting": "[1]; 7 Days (−20° C.)", "value": 99.56, "unit": "AREA %"}, {"measurement": "impurity RRT~0.73", "setting": "[1]; 7 Days (−20° C.)", "value": 0.07, "unit": "AREA %"}, {"measurement": "impurity RRT~0.94", "setting": "[1]; 7 Days (−20° C.)", "value": 0.03, "unit": "AREA %"}, {"measurement": "impurity RRT~0.97", "setting": "[1]; 7 Days (−20° C.)", "value": 0.16, "unit": "AREA %"}, {"measurement": "impurity RRT~1.06", "setting": "[1]; 7 Days (−20° C.)", "value": 0.15, "unit": "AREA %"}, {"measurement": "impurity RRT~1.38", "setting": "[1]; 7 Days (−20° C.)", "value": 0.04, "unit": "AREA %"}, {"measurement": "ALM-488 main peak", "setting": "[1]; Initial (RT)", "value": 99.64, "unit": "AREA %"}, {"measurement": "impurity RRT~0.94", "setting": "[1]; Initial (RT)", "value": 0.09, "unit": "AREA %"}, {"measurement": "impurity RRT~0.97", "setting": "[1]; Initial (RT)", "value": 0.23, "unit": "AREA %"}, {"measurement": "impurity RRT~1.06", "setting": "[1]; Initial (RT)", "value": 0.09, "unit": "AREA %"}, {"measurement": "solubility", "setting": "[2]; 50 mm citrate buffer, aqueous buffer, citrate buffers (pH 4-6), read-out: solubility", "value": "< 1000", "unit": "µg/mL"}, {"measurement": "ALM488 concentration", "setting": "[2]; [5]", "value": 0.87, "unit": "mg/mL"}, {"measurement": "HPLC purity, area %", "setting": "[2]; [5]", "value": 99.5, "unit": "%"}, {"measurement": "ALM488 concentration", "setting": "[2]; [6]", "value": 0.18, "unit": "mg/mL"}, {"measurement": "HPLC purity, area %", "setting": "[2]; [6]", "value": 99.8, "unit": "%"}, {"measurement": "ALM488 concentration", "setting": "[2]; [7]", "value": 0.60, "unit": "mg/mL"}, {"measurement": "HPLC purity, area %", "setting": "[2]; [7]", "value": 99.8, "unit": "%"}, {"measurement": "ALM488 concentration", "setting": "[2]; [8]", "value": 0.95, "unit": "mg/mL"}, {"measurement": "HPLC purity, area %", "setting": "[2]; [8]", "value": 99.8, "unit": "%"}, {"measurement": "ALM488 concentration", "setting": "[2]; [9]", "value": 0.96, "unit": "mg/mL"}, {"measurement": "HPLC purity, area %", "setting": "[2]; [9]", "value": 99.5, "unit": "%"}, {"measurement": "ALM488 concentration", "setting": "[2]; [10]", "value": 0.86, "unit": "mg/mL"}, {"measurement": "HPLC purity, area %", "setting": "[2]; [10]", "value": 99.3, "unit": "%"}, {"measurement": "Measured solution pH", "setting": "[2]; Citrate buffer 50 mM (pH 3.95)", "value": 3.85}, {"measurement": "solubility", "setting": "[2]; Citrate buffer 50 mM (pH 3.95), read-out: Measured concentration in filtered solution", "value": 830, "unit": "µg/mL"}, {"measurement": "Measured solution pH", "setting": "[2]; Citrate buffer 50 mM (pH 4.97)", "value": 4.89}, {"measurement": "solubility", "setting": "[2]; Citrate buffer 50 mM (pH 4.97), read-out: Measured concentration in filtered solution", "value": 180, "unit": "µg/mL"}, {"measurement": "Measured solution pH", "setting": "[2]; Citrate buffer 50 mM (pH 6.01)", "value": 5.91}, {"measurement": "solubility", "setting": "[2]; Citrate buffer 50 mM (pH 6.01), read-out: Measured concentration in filtered solution", "value": 610, "unit": "µg/mL"}, {"measurement": "ALM488 concentration", "setting": "[2]; [11]", "value": 0.83, "unit": "mg/mL"}, {"measurement": "HPLC purity, area %", "setting": "[2]; [11]", "value": 99.3, "unit": "%"}, {"measurement": "ALM488 concentration", "setting": "[2]; [12]", "value": 0.18, "unit": "mg/mL"}, {"measurement": "HPLC purity, area %", "setting": "[2]; [12]", "value": 99.8, "unit": "%"}, {"measurement": "ALM488 concentration", "setting": "[2]; Initial, Citrate buffer 50 mM, pH 6.01", "value": 0.61, "unit": "mg/mL"}, {"measurement": "ALM488 concentration", "setting": "[2]; [13]", "value": 0.94, "unit": "mg/mL"}, {"measurement": "HPLC purity, area %", "setting": "[2]; [13]", "value": 99.7, "unit": "%"}, {"measurement": "ALM488 concentration", "setting": "[2]; [14]", "value": 0.95, "unit": "mg/mL"}, {"measurement": "HPLC purity, area %", "setting": "[2]; [14]", "value": 99.7, "unit": "%"}, {"measurement": "ALM488 concentration", "setting": "[2]; Initial, Water", "value": 0.86, "unit": "mg/mL"}, {"measurement": "HPLC purity, area %", "setting": "[2]; Initial, Water", "value": 99.8, "unit": "%"}, {"measurement": "Measured solution pH", "setting": "[2]; Phos. buffer 50 mM (pH 7.04)", "value": 6.94}, {"measurement": "Measured solution pH", "setting": "[2]; Phos. buffer 50 mM (pH 8.18)", "value": 7.90}, {"measurement": "Measured solution pH", "setting": "[2]; Water", "value": 3.46}, {"measurement": "solubility", "setting": "[2]; aqueous buffer, pH 5, citrate buffer, read-out: solubility near isoelectric pH", "value": "~200", "unit": "µg/mL"}, {"measurement": "solution stability", "setting": "[2]; neutral pH values", "value": "adequate solution stability"}, {"measurement": "solubility", "setting": "[2]; phosphate buffer 50 mm, Phos. buffer 50 mM (pH 7.04), read-out: Measured concentration in filtered solution", "value": 940, "unit": "µg/mL"}, {"measurement": "solubility", "setting": "[2]; phosphate buffer 50 mm, Phos. buffer 50 mM (pH 8.18), read-out: Measured concentration in filtered solution", "value": 950, "unit": "µg/mL"}, {"measurement": "impurity at RRT ~1.4", "setting": "[2]; water (pH 3.46), 40° C. for 24 h", "value": "~ 0.5 area %"}, {"measurement": "dissolution", "setting": "[2]; water (pH 3.5) and phosphate buffer (pH 7-8), ~1 mg/mL", "value": "rapid and complete"}, {"measurement": "solubility", "setting": "[2]; water, read-out: Measured concentration in filtered solution", "value": 860, "unit": "µg/mL"}, {"measurement": "solubility", "setting": "[3]", "value": "> 50000", "unit": "µg/mL"}, {"measurement": "ALM-488 main peak", "setting": "[4]", "value": 99.69, "unit": "Area %"}, {"measurement": "impurity RRT~0.97", "setting": "[4]", "value": 0.14, "unit": "Area %"}, {"measurement": "impurity RRT~1.06", "setting": "[4]", "value": 0.11, "unit": "Area %"}, {"measurement": "impurity RRT~1.38", "setting": "[4]", "value": 0.02, "unit": "Area %"}]}]}
